This note sets out measurements from article PMC8457756.

A value given as a limit tells only on which side of the number the result lay.

Holding throughout (assay): EMSA
What all share (conditions): EMSA: 0.5 uM dsDNA probe, semi-pure TF titrated, PBS + NP40, 10 uL; 6% polyacrylamide gel, 0.5x TBE, 100 V 1 h, room temperature running buffer; pH and …

Data set [1] relates to GlyR2 (Clostridium thermocellum DSM 1313).
The subject of data set [2] is Rex_2471 (Clostridium thermocellum DSM 1313).
The test system of data set [3] is GntR_1482 (Clostridium thermocellum DSM 1313).
The subject of data set [4] is TetR_0692 (Clostridium thermocellum DSM 1313).
In data set [5] the test system is BlaI_1845 (Clostridium thermocellum DSM 1313).

For “TATAGCACCGGTAACATTACAAATCATAGAAT (double strand) [GlyR2 test oligo]”, the binding signal (% probe shifted) in data set [1] is > 70.

As for “ATTATTTTATTTTGTTATATTTTTAACAAAAAAATTATT (double strand) [Rex_2471 test oligo]”, the binding signal (% probe shifted) in data set [2] was > 70. For “ACCCCTGATTATGACAACATGACAGTAACAATCCGG (double strand) [GntR_1482 test oligo]”, the binding signal (% probe shifted) in data set [3] was > 70. In the case of “TAATTGGATCTTTGTTAATTGCAGTTTT (double strand) [GntR_1482 negative oligo]”, the binding signal (% probe shifted) in data set [3] is < 10. Consider “CAGGATGTAATGGCTTGTCGTCAGACCGGAG (double strand) [Rex_2471 negative oligo]”, for which the binding signal (% probe shifted) in data set [2] is < 10. For “TAAGCAGGGATATGACCACGTGGTCACCGTCCTCTG (double strand) [TetR_0692 test oligo]”, in data set [4], the binding signal (% probe shifted) is > 70.

Take “TGATATGGGGTGTTTGCTGTTTTTGCC (double strand) [negative oligo 27 bp]”: the binding signal (% probe shifted) in data set [5], in data set [1] and in data set [4] was < 10 throughout. For “GACCATAACAATAGTCCAAGTTCATCT (double strand) [BlaI_1845 test oligo]”, the binding signal (% probe shifted) in data set [5] is > 70.
